According to patent US20220259306A1:

B1: Mab033 (antibody, V domains shown)
VH: EVQLQQSVAEFVRPGASVRLSCTASGFNIENTYIHWLKQRPEQGLEWIGRIDPANGDTQYDPKFQGKATLTAATSSNTAYLQLSGLTSEDTAIYYCTRYGDYLFYYSLKYWGQGTSVTVSS
VL: DIVMTQAAPSVSVTPGESVSISCRSSKSLLHSNGNTYLYWFLQRPGQSPQLLIYRMSNLASGVPDRFSGSGSGTAFTLRISRVEAEDVGVYYCMQHLESPYTFGGGTKLEIK
B2: Mpb416 (antibody, V domains shown)
VH: QVQLQQSVAELVRPGASVKLSCTASGFNIQNTYIHWVKQRPEQGLEWIGKIDPANGDTKYAPTFQGKATITADTSSNTAYLQLSSLTPEDTAIYYCARYRDYLFYYALGYWGQGTSVTVSS
VL: DIVMTQSAPSVPVTPGESVSISCRSSKSLLHSNGNTYLYWFLQRPGQSPQLLIYRMSNLASGVPDRFSGSGSGTAFTLRISRVEAEDVGVYYCMQHLEYPYTFGGGTKLEIK
B3: Mab031 (antibody, V domains shown)
VH: EVQLQQSVAELVRPGASVRLSCTGSGFNIQNTYIHWVKQRPEQGLEWIGRIDPANGDTKYAPKFQGKATITADTSSNTAYLQLSSLTSEDTAIYYCTRYGNYLYYYSLDYWGQGTSVTVSS
VL: DIVMTQAAPSVPVTPGESVSISCRSSKSLLHSNGNTYLYWFLQRPGQSPQLLIYRMSNLASGVPDRFSGSGSGTAFTLRISRVEAEDMGVYYCMQHLEYPYTFGGGTKLEIK
B4: Mab032 (antibody, V domains shown)
VH: EVQLQQSVAELVRPGASVRLSCTGSGFNIENTYMHWLKQRPEQGLEWIGRIDPADGDTQYAPKFQGKATITTDTSSNTAYLQLSSLTSEDTAIYYCARYGNYLFYYSMDYWGQGTSVTVSS
VL: DIVMTQAAPSVPVTPGESVSISCRSSKSLLHSNGNTYLYWFLQRPGQSPQLLIYRMSNLASGVPDRFSGSGSATAFTLRISRVEAEDVGIYYCMQHLEYPYTFGGGTKLEIK
B5: M15-5 (antibody, V domains shown)
VH: QVQLVQSGAEVKKPGASVKVSCKASGFNIQNTYIHWVKQAPGQGLEWIGKIDPANADTKYAPTFQGRATITADTSTNTAYLELSSLRSEDTAVYYCARYRDYLFYYALGYWGQGTTVTVSS
VL: DIVMTQSPLSLPVTPGEPASISCRSSKSLLHSNANTYLYWYLQKPGQSPQLLIYRMSNLASGVPDRFSGSGSGTDFTLKISRVEAEDVGVYYCMQHLEYPYTFGQGTKLEIK
B6: M15 (antibody, V domains shown)
VH: QVQLQQSVAELVRPGASVKLSCTASGFNIQNTYIHWVKQRPEQGLEWIGKIDPANADTKYAPTFQGKATITADTSSNTAYLQLSSLTPEDTAIYYCARYRDYLFYYALGYWGQGTSVTVSS
VL: DIVMTQSAPSVPVTPGESVSISCRSSKSLLHSNANTYLYWFLQRPGQSPQLLIYRMSNLASGVPDRFSGSGSGTAFTLRISRVEAEDVGVYYCMQHLEYPYTFGGGTKLEIK

Columns and labels:
[1] = target: human NKG2A/CD94 on the cell surface (CHOk1-hNKG2A/CD94 stable cell line) (human) (UniProt P26715); test: FACS blocking assay: HLA-E-PE binding to CHOk1-hNKG2A/CD94 cells in the presence of the antibody
[2] = target: human NKG2A/CD94 on the cell surface (CHOk1-hNKG2A/CD94 stable cell line) (human) (UniProt P26715); test: FACS on CHOK1-hNKG2A/CD94 cells, Alexa 488 secondary antibody
[3] = target: human NKG2A/CD94 on the cell surface (CHOk1-hNKG2A/CD94 stable cell line) (human) (UniProt P26715); test: FACS on CHOK1-hNKG2A/CD94 cells

Row | Binder | IC50 (read off the curve) [1] | EC50 (read off the curve) [2] | EC50 (read off the curve) [3]
1 | B1 | 1000 pM | 800 pM | 
2 | B2 |  | 700 pM | 
3 | B3 | 1000 pM | 800 pM | 
4 | B4 | 1000 pM | 800 pM | 
5 | B5 |  |  | 1000 pM
6 | B6 |  |  | 800 pM
